Assay results from the supplement of paper PMC10567573.
± gives the standard deviation.

Assay: protein stability index of a GFP-peptide fusion (GPS, HEK-293T) (PSI 1-6); higher = more stable
Conditions: c terminus: a fixed tail appended
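Further: 24-mer peptide tiles fused after GFP, lentivirally expressed, FACS-sorted into six equal bins by GFP/DsRed ratio, decoded by Illumina sequencing, PSI is the read-weighted mean bin number.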

| Sequence | protein stability index (treatment: DMSO) | protein stability index (treatment: MLN4924 1 uM, 8 h) |
| --- | --- | --- |
| QTFLDERTPRLMPDKESMYYPRVQ [GDAP1] | 3.43 ± 0.32 | 3.41 ± 0.31 |
| AEREALQARLRDVSRREGALGWAP [ZBED3] | 4.04 ± 0.13 | 3.92 ± 0.17 |
| HSYLSGYISLLLRAEPYPTSRFGS [NR2F2] | 3.06 ± 0.33 | 2.85 ± 0.2 |
| SVAHLPWRMLTYKALNTFIDDLFA [CLPTM1] | 2.46 ± 0.25 | 2.28 ± 0.37 |
| ERVDGRRLVYKFGKNSSGWKEEEV [ELF3] | 4.11 ± 0.37 | 4.39 ± 0.15 |
| SEPIRRAGKSGTSTPTTPGSTAIT [MAP2] | 4.66 ± 0.25 | 4.65 ± 0.2 |
| SEGACEKEKQSRDFQGRILSVDPE [RHOBTB1] | 5.22 ± 0.42 | 5.12 ± 0.35 |
| DVKKEKLSPDIMKDAYVQKLVKVC [TENT5D] | 2.94 ± 0.52 | 3.1 ± 0.076 |
| CLVCGDVASGYHYGVASCEACKAF [ESRRA] | 3.96 ± 0.32 | 3.94 ± 0.23 |
| MAAEIHSRPQSSRPVLLSKIEGHQ [WDFY1] | 3.84 ± 0.13 | 3.88 ± 0.23 |
| AELLKANEIIKKLQGDLKTLMGKL [SASS6] | 2.36 ± 0.59 | 3.44 ± 0.66 |
| SFVLSSLQLGEGVEFDVLPAFDAL [OAS1] | 2.45 ± 0.59 | 2.26 ± 0.53 |
| PFSECGEAVSDSTPFLTNHGAHKA [ZNF263] | 4.76 ± 0.24 | 4.93 ± 0.32 |
| AVIGNFLYVVGGQSNYDTKGKTAV [KLHL13] | 2.38 ± 0.73 | 2.24 ± 0.67 |
| SCAGGRLFQQSCPTGLVFSNSCKC [CHIT1] | 2.98 ± 0.17 | 3.05 ± 0.24 |
| AMDNHSDSEEELAAFCPQLDDSTV [RETREG3] | 5.34 ± 0.23 | 5.4 ± 0.14 |
| GQENDATSPHFSTRHEGSFQVPVL [CD69] | 3.68 ± 0.35 | 3.69 ± 0.14 |
| MEEMEEELKCPVCGSFYREPIILP [TRIM9] | 4.05 ± 0.35 | 4.38 ± 0.28 |
| ATQSHSISSSSFGAEPSAPGGGGS [RTN3] | 5.19 ± 0.23 | 5.19 ± 0.093 |
| TTISYLPHAPPFAGGHPAQLGLGR [JUNB] | 2.72 ± 0.2 | 2.61 ± 0.26 |
| RPQPWLEKEIEEATKKLGFKHPVI [FUT8] | 3.643 ± 0.035 | 3.22 ± 0.37 |
| EPESKNAPHSQGEYDVYSTFQSHE [PPP2R2C] | 5.19 ± 0.15 | 5.19 ± 0.15 |
| KSKVVGDRENGSDNLPSSAGSGDK [TPD52L2] | 5.39 ± 0.1 | 5.55 ± 0.16 |

| Sequence | protein stability index (treatment: DMSO) | protein stability index (treatment: MLN4924 1 uM, 8 h) |
| --- | --- | --- |
| RAKGLLGTTVTFDDLMGILCKSVL [FEM1C] | 2.76 ± 0.63 | 2.54 ± 0.22 |
| LEPSTPYRFLLYGLHEGKRLGPLS [TNXB] | 2.44 ± 0.3 | 2.46 ± 0.15 |
| EVIPYTPAMQRYVKRLHEVGRTEP [HMOX1] | 3.18 ± 0.21 | 3.41 ± 0.25 |
| IETSALDSTNVEEAFKNILTEIYR [RAB11B] | 2.41 ± 0.14 | 2.79 ± 0.29 |
| VLKKLAQSRRTALATSPITVGDLG [YJU2B] | 2.614 ± 0.015 | 2.58 ± 0.24 |
| DTREEKRFLGEGHHRVQENQMDKA [CHGB] | 5.25 ± 0.13 | 5.16 ± 0.25 |
| ADNMEFEQCIKLWLHALHLRQKGN [FEM1B] | 2.56 ± 0.15 | 2.72 ± 0.2 |
| LFIILQVGLNTIADLWYLFGDLSL [POMT2] | 3.06 ± 0.84 | 3.17 ± 0.064 |
| LPCQHNLCRKCANDIFQAANPYWT [TRIM63] | 2.38 ± 0.18 | 2.29 ± 0.14 |
| RQQGNPGHRSIYLALKLPDGSYAL [ADAMTS4] | 2.04 ± 0.23 | 2.2 ± 0.33 |
| PISEKAKDLILRFCIDSENRIGNS [STK38L] | 2.04 ± 0.47 | 2.05 ± 0.41 |
| MTLPLLRQTSTKAVQHFYNIKLEG [ESRRG] | 2.48 ± 0.18 | 2.44 ± 0.26 |
| RRQQAKLKELQAIAERLGCTLPQL [KCNAB2] | 2.99 ± 0.17 | 3.19 ± 0.3 |
| GLQSPGTLQPPEFLYSHGVPRTLS [TBX5] | 3.32 ± 0.27 | 3.49 ± 0.36 |
| SRMKERAIDLNKKGKDNKHPMYRR [ZMYND11] | 4.12 ± 0.2 | 4.08 ± 0.46 |
| YPSLQAMGWFNNEVGSMKIQSGAW [CRYBA1] | 1.99 ± 0.41 | 2.45 ± 0.17 |
| PHSAKTEEHTTILRPSYTGLSSSS [CDC14A] | 4.4 ± 0.33 | 4.58 ± 0.2 |
| LHLKRQPKRRWLFWNSPSSPSSSA [RHOBTB2] | 2.27 ± 0.25 | 2.53 ± 0.21 |
| TKVGGTNPNGGSFEEVLSSTAHAS [TPD52L1] | 4.78 ± 0.26 | 4.69 ± 0.26 |
| AESKGTGREKPGPLDFEAYSAAAL [FCHO1] | 4.8 ± 0.12 | 5.04 ± 0.22 |
| LRLEGLLCDVTLMPGDTDDAFPVH [KLHL13] | 2.42 ± 0.24 | 2.48 ± 0.35 |
| LHYKWIPVEDSHTADISSHFQEAI [DUSP5] | 2.17 ± 0.23 | 2.25 ± 0.52 |
| GVPQIWEKIHEMVKKNSAKSMGLK [ACSBG2] | 2.09 ± 0.21 | 2.53 ± 0.046 |

| Sequence | protein stability index (treatment: DMSO) | protein stability index (treatment: MLN4924 1 uM, 8 h) |
| --- | --- | --- |
| QFCAQRFGRKDHLTRHTKKTHSQE [PLAGL1] | 4.07 ± 0.43 | 4.18 ± 0.27 |
| TNFHGVCMFCNEEFLGNRSVILNH [ZNF277] | 2.08 ± 0.33 | 2.11 ± 0.39 |
| ERQVLPDPEVLEAVGDRQDGLREQ [PBXIP1] | 5.54 ± 0.26 | 5.64 ± 0.1 |
| VCINLPPPLTRQIAVKTLGIGKNV [GFOD1] | 2.23 ± 0.27 | 2.05 ± 0.19 |
| SSSPASVTTEQLGAKMTERGSVAR [PXN] | 4.86 ± 0.42 | 4.76 ± 0.59 |
| RVLHDFGLDGYRGYSLADWVCLAY [SPACA3] | 2.2 ± 0.34 | 2.21 ± 0.18 |
| TPISNEVEMESEEQIAERKRKMVS [KMT2E] | 5.02 ± 0.36 | 5.05 ± 0.18 |
| HSFVLVTSLGLTYDGMLSDVQSMP [MAGEA10] | 2.83 ± 0.53 | 2.88 ± 0.47 |
| NFVRERTLDKRWRVRKEAMMGLAQ [PDS5B] | 2.8 ± 0.24 | 2.83 ± 0.39 |
| NPIGHLPESLTKPDQVAPFTFLQP [ATF4] | 3.56 ± 0.11 | 3.8 ± 0.49 |
| EVIEKPENDPEWWKCKNARGQVGL [NCK2] | 4.28 ± 0.31 | 4.368 ± 0.038 |
| RCNTTCGRGVKKRLVLCMELANGK [ADAMTSL2] | 3.22 ± 0.21 | 3 ± 0.13 |
| LPPPPPPSRGGNQLPRPPIVGGNK [WAS] | 5.11 ± 0.6 | 5.01 ± 0.33 |
| FTVGSVLGQILVSVAGWSLFSLNV [SLC19A2] | 3.28 ± 0.33 | 3.1 ± 0.63 |
| SVNISLDNLLPGMQPSKPQQPSLN [CLINT1] | 3.4 ± 0.23 | 3.51 ± 0.16 |
| EGDTVSQELLDTVLVNLVPAHKNL [PDS5B] | 3.65 ± 0.24 | 3.94 ± 0.34 |
| QVPYPPRQLLRDFQSRLPYQYLHY [P3H4] | 2.45 ± 0.072 | 2.24 ± 0.35 |
| TGWFGGGFTSYLGFGDEDTGLELI [MIA2] | 2.07 ± 0.35 |  |
| EAVSTLLGAVAVFAVGYIKISWST [SLC19A2] | 2.82 ± 0.21 | 2.98 ± 0.73 |
| CDFKIDAGDRFLEALGFSWHDTCF [PDLIM7] | 2.6 ± 0.5 | 2.47 ± 0.46 |
| VVQDSVNISGHTNTNTLKVPECRL [SPOPL] | 3.34 ± 0.25 | 3.56 ± 0.43 |
| ALVRLRETEEMLGKKQEYLENRIQ [CHMP4C] | 3.02 ± 0.46 | 3.35 ± 0.2 |
| EQTYHAKLENARLSSEMNTSTVNS [LMNB1] | 4.88 ± 0.14 | 5.03 ± 0.19 |

| Sequence | protein stability index (treatment: DMSO) | protein stability index (treatment: MLN4924 1 uM, 8 h) |
| --- | --- | --- |
| ASRTWCFYNTEDIKDWEDRFYLLL [PTGFR] | 2.15 ± 0.6 | 2.46 ± 0.38 |
| QLHPPRWYSRLQACQWGGNFLAFS | 2.11 ± 0.45 | 2.26 ± 0.088 |
| GSALTFREEQCAAYNHRTDLFKSF [ADAMTS4] | 2.97 ± 0.17 | 2.88 ± 0.22 |
| FPVAEQDKLLKHMIIEHKIVIADV [ZNF277] | 2.25 ± 0.18 | 2.4 ± 0.34 |
| ITEALRPAGVGVVVEATHMCMVMR [GCH1] | 2.11 ± 0.38 | 2.29 ± 0.33 |
| KGYPDGVKSIVVKGYNIWTGGPDA [TLE6] | 2.68 ± 0.28 | 2.8 ± 0.49 |
| ELSEKNFQLNQDKMNFSTLRNIQG [POMP] | 2.69 ± 0.59 | 3.27 ± 0.44 |
| ESKDQGKTLALARTMDIPRSVQNF [ALDH8A1] | 4.01 ± 0.15 | 4.18 ± 0.23 |
| LIYASYFALIAVVFLASGAVSVMK [SLC19A2] | 2.95 ± 0.27 | 3.44 ± 0.43 |
| VGRTGCFIVIDAMLERIKHEKTVD [PTPRD] | 2.25 ± 0.34 | 2.54 ± 0.26 |
| TLKCLSHHVADAYTSSQKVSPIQI [TOR1AIP2] | 2.53 ± 0.096 | 2.6 ± 0.37 |
| DGVITASEDRTIRVWLKRDSGQYW [WDFY1] | 2.65 ± 0.65 | 2.76 ± 0.18 |
| LGGVKKSATLRSFEGLMGTIKSKV [TPD52L3] | 2.64 ± 0.3 | 2.54 ± 0.26 |
| PILRLLPQGISPVSQHWATWALYN [ZER1] | 2.78 ± 0.37 | 2.95 ± 0.34 |
| LPSVFGSLRDSGYFYDPIERDIEI [RSPH3] | 2.31 ± 0.37 | 2.64 ± 0.61 |
| AAGEQLQQQHVSCQVFPERLAQGN [ATP23] | 4.47 ± 0.15 | 4.5 ± 0.28 |
| RRPRTAFTQNQIEVLENVFRVNCY [HESX1] | 2.39 ± 0.15 | 2.53 ± 0.24 |
| TKIRALQGSLENMSKLLKRQNDIL [CD207] | 2.4 ± 0.16 | 2.57 ± 0.21 |
| LGSYKAQKTSRSSSIPCSGSLDGR [PPEF2] | 4.177 ± 0.013 | 4.43 ± 0.14 |
| ATGLTSGLLSLLLPETLNSPLLET [SLC22A15] | 2.2 ± 0.46 | 2.1 ± 0.23 |
| NLQSLINNEIPDCYTFSVLITFDN [MCOLN1] | 2.93 ± 0.22 | 3.23 ± 0.74 |
